Data on 35 molecules can be found in US20100280101, “METHOD OF INHIBITING CANCER CELL PROLIFERATION, PROLIFERATION INHIBITOR AND SCREENING METHOD” (University of Occupational and Environmental Health Japan, published 2010).

T1: ZNF143 (UniProt P52747 SEQ:1-638)
T1 sequence: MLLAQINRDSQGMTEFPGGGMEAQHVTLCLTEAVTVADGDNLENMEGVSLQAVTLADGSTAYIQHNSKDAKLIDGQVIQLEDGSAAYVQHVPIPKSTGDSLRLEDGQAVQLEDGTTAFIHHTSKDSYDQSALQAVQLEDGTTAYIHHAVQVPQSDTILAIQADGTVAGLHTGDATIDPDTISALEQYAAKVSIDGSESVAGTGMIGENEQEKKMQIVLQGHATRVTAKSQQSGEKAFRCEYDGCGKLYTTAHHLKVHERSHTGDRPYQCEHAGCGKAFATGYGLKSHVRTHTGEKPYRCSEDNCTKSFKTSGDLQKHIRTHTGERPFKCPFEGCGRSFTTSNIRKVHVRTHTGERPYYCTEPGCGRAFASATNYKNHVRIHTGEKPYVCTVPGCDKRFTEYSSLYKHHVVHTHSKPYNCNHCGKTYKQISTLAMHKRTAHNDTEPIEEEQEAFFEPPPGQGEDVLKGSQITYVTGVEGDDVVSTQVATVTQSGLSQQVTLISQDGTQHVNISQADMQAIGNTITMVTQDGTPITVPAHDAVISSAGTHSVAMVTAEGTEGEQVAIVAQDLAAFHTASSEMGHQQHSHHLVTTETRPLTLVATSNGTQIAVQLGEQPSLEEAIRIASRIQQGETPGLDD

B1: PLK1 promoter site 2 (dsDNA)
DNA 1: GCTCCCATGGTGCCGCGCG
DNA 2: CGCGCGGCACCATGGGAGC
B2: MCM4 promoter site 1 (dsDNA)
DNA 1: GTACCCACCCAGCACCGCG
DNA 2: CGCGGTGCTGGGTGGGTAC
B3: BUB1 promoter site (dsDNA)
DNA 1: TCTCCCCACCTGCCTCCCG
DNA 2: CGGGAGGCAGGTGGGGAGA
B4: CCNE2 promoter site (dsDNA)
DNA 1: CTTCCCACCCGGCCAGGTC
DNA 2: GACCTGGCCGGGTGGGAAG
B5: CDT1 promoter site 2 (dsDNA)
DNA 1: CCTCCCCCCGTGCTCTGCC
DNA 2: GGCAGAGCACGGGGGGAGG
B6: MCM5 promoter site (dsDNA)
DNA 1: GTGCCCATTTTGCATTGGG
DNA 2: CCCAATGCAAAATGGGCAC
B7: MCM3 promoter site (dsDNA)
DNA 1: ACTCCCAGAACGCAATGCC
DNA 2: GGCATTGCGTTCTGGGAGT
B8: CCNF promoter site (dsDNA)
DNA 1: ACCCCCAGCTTGCACGGCC
DNA 2: GGCCGTGCAAGCTGGGGGT
B9: MCM4 promoter site 2 (dsDNA)
DNA 1: TTTCCCGGGGACCCCTGCG
DNA 2: CGCAGGGGTCCCCGGGAAA
B10: ESPL1 promoter site 2 (dsDNA)
DNA 1: ACTCCCAGCGTGCCGCGCG
DNA 2: CGCGCGGCACGCTGGGAGT
B11: CDCA4 promoter site (dsDNA)
DNA 1: GCTCCCAGGTCTCCGCGCG
DNA 2: CGCGCGGAGACCTGGGAGC
B12: CDKN2C promoter site (dsDNA)
DNA 1: ATCCCCAAAATCCAAGCCA
DNA 2: TGGCTTGGATTTTGGGGAT
B13: UHRF1 promoter site (dsDNA)
DNA 1: ACTCCCAGGATGCCCTTCC
DNA 2: GGAAGGGCATCCTGGGAGT
B14: ESPL1 promoter site 1 (dsDNA)
DNA 1: TTACCCGCCGCGCTGCGCG
DNA 2: CGCGCAGCGCGGCGGGTAA
B15: BIRC5 (survivin) promoter site (dsDNA)
DNA 1: GCCCCCACCCTCCACTGGG
DNA 2: CCCAGTGGAGGGTGGGGGC
B16: CDCA8 promoter site 2 (dsDNA)
DNA 1: CCCGCCCTCCCCACCAACCCACCCG
DNA 2: CGGGTGGGTTGGTGGGGAGGGCGGG
B17: WEE1 promoter site (dsDNA)
DNA 1: TTAATCTGTCCCTTAATGCACTTAC
DNA 2: GTAAGTGCATTAAGGGACAGATTAA
B18: RFC2 promoter site (dsDNA)
DNA 1: GGTGGAATTCCCATCTTGCAGCCGA
DNA 2: TCGGCTGCAAGATGGGAATTCCACC
B19: AURKB promoter site (dsDNA)
DNA 1: CCTCGGCTTCCCAAAATGCTGGGAT
DNA 2: ATCCCAGCATTTTGGGAAGCCGAGG
B20: CDC2L6 promoter site 2 (dsDNA)
DNA 1: ACTTCATTTCCCAGGAGCCTCCGCG
DNA 2: CGCGGAGGCTCCTGGGAAATGAAGT
B21: CDK2 promoter site (dsDNA)
DNA 1: CATTGCTTTCCCATCCTGCTACTCA
DNA 2: TGAGTAGCAGGATGGGAAAGCAATG
B22: CDCA8 promoter site 1 (dsDNA)
DNA 1: ACTACTACTCCCGGCAGGCCTTGTG
DNA 2: CACAAGGCCTGCCGGGAGTAGTAGT
B23: PLK1 promoter site 1 (dsDNA)
DNA 1: CAGGGCGCTCCCATGGTGCCGCGCG
DNA 2: CGCGCGGCACCATGGGAGCGCCCTG
B24: CDCA5 promoter site (dsDNA)
DNA 1: TGCGCCTCTCCCTTCAGCCCCGGCC
DNA 2: GGCCGGGGCTGAAGGGAGAGGCGCA
B25: CDC2L6 promoter site 1 (dsDNA)
DNA 1: AATACAGCTCCCAGGTTACCTCGGG
DNA 2: CCCGAGGTAACCTGGGAGCTGTATT
B26: PFS2 promoter site (dsDNA)
DNA 1: TCTCGACTTCCCAAAGTGCTGGGAT
DNA 2: ATCCCAGCACTTTGGGAAGTCGAGA
B27: CDC6 promoter site (dsDNA)
DNA 1: ACTACGCCTCCCAGCGTGCTTTGCG
DNA 2: CGCAAAGCACGCTGGGAGGCGTAGT
B28: MCM2 promoter site (dsDNA)
DNA 1: CCTCGGCTTCCCAAAGTGCTGGGAT
DNA 2: ATCCCAGCACTTTGGGAAGCCGAGG
B29: RFC4 promoter site (dsDNA)
DNA 1: CCAGCCTAGCCCACTGTGCATGAAG
DNA 2: CTTCATGCACAGTGGGCTAGGCTGG
B30: ZNF367 (CDC14B) promoter site (dsDNA)
DNA 1: CGGGTCCTTCCCACCTCGCCATTGG
DNA 2: CCAATGGCGAGGTGGGAAGGACCCG
B31: SPBC25 promoter site (dsDNA)
DNA 1: ACTACGAATCCCAGAATGCCCTGTT
DNA 2: AACAGGGCATTCTGGGATTCGTAGT
B32: CDCA3 promoter site (dsDNA)
DNA 1: GACGTAGTTCCCATAGGCCCTCCAC
DNA 2: GTGGAGGGCCTATGGGAACTACGTC
B33: CCNA2 promoter site (dsDNA)
DNA 1: CAGGCACTGCCCAGCGTGGCGAGCC
DNA 2: GGCTCGCCACGCTGGGCAGTGCCTG
B34: CDT1 promoter site 1 (dsDNA)
DNA 1: CCCTTCCCTCCCCCCGTGCTCTGCC
DNA 2: GGCAGAGCACGGGGGGAGGGAAGGG
B35: GTSE1 promoter site (dsDNA)
DNA 1: ACTACAATACCCAGGACGCACCCAG
DNA 2: CTGGGTGCGTCCTGGGTATTGTAGT

The target of the first data set is T1, ZNF143. Description: EMSA; also ChIP.
As for B1, the binding result is given as “binds”.
Turning to B2, the binding result is on record as “binds”.
B3: the binding result is given as “binds”.
Regarding B4, the binding result is listed as “binds”.
The same measure, in the same setting: the same measure for B5: “binds”.
In the case of B6, the binding result is recorded as “binds”.
Same read-out and setting: with B7 the entry was “binds”; with B8, “binds”; with B9, “binds”.
Still for that read-out and setting: with B10 the entry was “binds”; with B11, “binds”; with B12, “binds”.
Regarding B13, the binding result is “binds”.
On to B14, for which the binding result is given as “binds”.
With B15, the binding result is recorded as “binds”.

A further data set has as its target T1, ZNF143. The data set can be described thus: EMSA; also ChIP; binding retained without 5'-terminal 6 bases. Background: Mobility shift assays separate free from complexed probe on a gel.
On to B16, for which the binding result is recorded as “binds”.
B17: the binding result is “binds”.
With B18, the binding result is on record as “binds”.
Same read-out and setting: with B19 the entry was “binds”; with B20, “binds”.
For the molecule B21, the binding result is “binds”.
Still for that read-out and setting: with B22 the entry was “binds”; with B23, “binds”; with B24, “binds”.
Still for that read-out and setting: the same measure for B25: “binds”; for B26: “binds”.
Turning to B27, the binding result is “binds”.
Turning to B28, the binding result is reported as “binds”.
As to B29, the binding result was “binds”.
On to B30, for which the binding result is recorded as “binds”.
Same read-out and setting: with B31 the entry was “binds”.
Still for that read-out and setting: the same measure for B32: “binds”; for B33: “binds”.
On the same count and under the same terms, the same measure for B34: “binds”; for B35: “binds”.
